Test results as given in article PMC7803741 (2021).
Where two headings read alike, the source gives them in different places.

Columns and labels:
Assay in all cases: ITC
[1] = target: T1, GABAAR-associated protein (GABARAP) (mouse, UniProt Q9DCD6 1-117)
[2] = target: GABARAP K24E (mouse, UniProt Q9DCD6 1-117, K24E)
[3] = target: GABARAP K66E (mouse, UniProt Q9DCD6 1-117, K66E)
[4] = target: GABARAP E17A (mouse, UniProt Q9DCD6 1-117, E17A)
[5] = target: LC3B (mouse, UniProt Q9CQV6 1-120)
[6] = target: GABARAPL2 (mouse, UniProt P60521 1-117)
Sequence of GABARAPL2 (P60521 whole entry): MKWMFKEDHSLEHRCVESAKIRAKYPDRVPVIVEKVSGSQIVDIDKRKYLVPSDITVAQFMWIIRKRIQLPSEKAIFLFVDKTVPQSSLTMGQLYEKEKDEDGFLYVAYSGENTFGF

[7] = target: LC3A (mouse, UniProt Q91VR7 1-121)
[8] = target: T1, GABAAR-associated protein (GABARAP); remark: listed apart in the source

T1 sequence (Q9DCD6 whole entry): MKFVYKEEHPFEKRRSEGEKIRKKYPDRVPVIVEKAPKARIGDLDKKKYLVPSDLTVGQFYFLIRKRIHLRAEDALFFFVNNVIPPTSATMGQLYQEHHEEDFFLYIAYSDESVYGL
Sequence of GABARAP E17A (Q9DCD6 whole entry E17A): as the sequence (Q9DCD6 whole entry) above, with E17A counted along it
Sequence of GABARAP K66E (Q9DCD6 whole entry K66E): as the sequence (Q9DCD6 whole entry) above, with K66E counted along it
Sequence of GABARAP K24E (Q9DCD6 whole entry K24E): as the sequence (Q9DCD6 whole entry) above, with K24E counted along it

Binder: VEEERVIVSDEEIEEARQKAPLEITEY [AnkB-WR peptide]
- Kd [1]: > 100 µM

Binder: ERDEEYGYECLDGKDCAS [GABAAR γ2 subunit GIM (GABARAP interacting motif, 398–415)]
- Kd [2]: > 100 µM
- Kd [3]: 23.6 µM
- Kd [4]: 6.8 µM
- Kd [1]: 6.8 µM
- Kd [5]: > 300 µM
- Kd [6]: > 200 µM
- Kd [7]: > 300 µM

Binder: PEDDWTEFSSEEIREARQAAASHAPS [AnkG-WT peptide]
- Kd [1]: 0.007 µM

Binder: PAPTIDIRPRSATIQMNNATHLQERDEEYGYECLDGKDCASFFCCFEDCR (domain or fragment) [GABAA receptor γ2 subunit 375-424]
- Kd [8]: 5.1 µM

Binder: PEDDWTRFSSEEIREARQAAASHAPS [AnkG-ER peptide]
- Kd [1]: 0.007 µM
